Source: patent publication US5668000A, “Mitochondrial P450” (Sumitomo Chemical Company, Limited, priority 1990, dated 1997)

Assays:
[1] = 27-hydroxylation activity of THC in yeast subcellular fractions with added ADX, ADR and NADPH; format: biochemical; details: expressed in yeast
Description: (§1) A mitochondrial fraction prepared from the strain AH22/pAC25 and a microsomal fraction prepared from the strain AH22/pAMS25 were used for the measurement of hydroxylation activities. Subcellular fractionation was prepared from a transformant yeast strain according to the following method. About 4×10^10 cells were collected from a culture containing about 2×10^7 cells/ml, suspended in Zymolyase solution [10 mM Tris-HCl (pH 7.5), 2.0M sorbitol, 0.1 mM dithiothreitol, 0.1 mM EDTA, 0.3 mg/ml Zymolyase 100T] and incubated at 30° C. for 1 hour to prepare spheroplasts. The spheroplasts were suspended in a sonication buffer (10 mM Tris-HCl (pH 7.5), 0.65M sorbitol, 0.1 mM dithiothreitol, 0.1 mM EDTA, 1 μg/ml leupeptin, 1 μg/ml pepstatin) and homogenized with a Teflon homogenizer to disrupt the cells.
(§2) Precipitate 1 was removed by centrifugation at 3000×g for 5 minutes to give supernatant 1'. Precipitate 1 was resuspended in a sonication buffer, homogenized again, centrifuged at 3000×g for 5 minutes to give precipitate 1 (undisrupted cells and nucleus fractions) and supernatant 1". […]
(§3) Reaction systems (2 ml) shown in the following but NADPH were mixed and preincubated at 37° C. for 5 minutes, and reaction was initiated by the addition of NADPH. […] The benzene layer obtained by centrifugation was dried completely and analyzed by HPLC under the condition listed below. […]

[2] = 25-hydroxylation activity of 1α-hydroxyvitamin D3 in yeast subcellular fractions with added ADX, ADR and NADPH; format: biochemical; details: expressed in yeast
Description: as §1, §2, §3

[3] = expressed in yeast

B1: P450c25: rat liver mitochondrial P450c25 expressed in yeast (protein, UniProt P17178 33-533, looked up)
Sterol 26-hydroxylase, …: AIPAALRDHESTEGPGTGQDRPRLRSLAELPGPGTLRFLFQLFLRGYVLHLHELQALNKAKYGPMWTTTFGTRTNVNLASAPLLEQVMRQEGKYPIRDSMEQWKEHRDHKGLSYGIFITQGQQWYHLRHSLNQRMLKPAEAALYTDALNEVISDFIARLDQVRTESASGDQVPDVAHLLYHLALEAICYILFEKRVGCLEPSIPEDTATFIRSVGLMFKNSVYVTFLPKWSRPLLPFWKRYMNNWDNIFSFGEKMIHQKVQEIEAQLQAAGPDGVQVSGYLHFLLTKELLSPQETVGTFPELILAGVDTTSNTLTWALYHLSKNPEIQEALHKEVTGVVPFGKVPQNKDFAHMPLLKAVIKETLRLYPVVPTNSRIITEKETEINGFLFPKNTQFVLCHYVVSRDPSVFPEPESFQPHRWLRKREDDNSGIQHPFGSVPFGYGVRSCLGRRIAELEMQLLLSRLIQKYEVVLSPGMGEVKSVSRIVLVPSKKVSLRFLQRQ
exhibited hydroxylation activities: hydroxylation activity to THC [1] | hydroxylation activity to 1α-hydroxyvitamin D3 [2] | hydroxylation activity to vitamin D3 [3]
